Laboratory results reported in the supplement of paper PMC10567573.

B1: ZNF449 (parent)
chain: YRHQRLHTGERPYECTVCKKRFTR

Variants of: B1
Assay: protein stability index of a GFP-peptide fusion (GPS, HEK-293T) (PSI 1-6); higher = more stable
Settings: c terminus: a fixed tail appended
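Also: lentivirally expressed fusions sorted by FACS into six bins by GFP to DsRed ratio, PSI derived from sequencing read proportions per bin multiplied by bin number.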

Protein stability index: each site, then its substitutions
K19: H 1.55 | V 2.3 | E 2.01 | S 1.74 | R 2.34 | C 2.12 | W 2.07 | I 2.58 | Q 2.57 | P 2.69 | F 2.33 | D 1.96 | N 2.19 | M 2.12 | L 2.2 | T 2.77 | A 2.68 | G 2.15 | Y 1.95
T16: W 2.03 | H 2.24 | F 2.14 | D 2.52 | Q 2.27 | I 2.34 | L 2.08 | S 2.39 | P 2.22 | V 2.07 | R 2.51 | Y 2.75 | K 2.78 | M 1.98 | E 2.25 | N 2.46 | G 2.33
C18: P 3.45 | G 3.37 | A 3.39 | I 3.15 | Q 3.27 | W 2.21 | F 2.38 | L 2.6 | N 3.43 | M 2.56 | D 3.24 | R 3.65 | E 3.48 | V 3.48 | H 3.48 | K 3.77 | T 3.6 | S 3.38 | Y 2.96
F22: L 2.87 | H 3.21 | W 2.3 | C 3.46 | Y 2.84 | R 3.19 | M 2.48 | D 2.94 | P 2.98 | S 3.06 | Q 2.66 | N 3.09 | E 3.23 | A 2.93 | G 2.27 | I 2.76 | T 2.41 | K 2.79 | V 2.52
T23: G 2.41 | Q 2.16 | E 2.67 | L 2.71 | A 2.93 | M 2.85 | Y 2.78 | R 2.85 | K 2.54 | N 2.28 | D 2.21 | W 2.13 | S 2.09 | I 2.76 | F 2.62 | H 2.78 | P 2.45 | C 2.7 | V 2.36
R24: N 2.47 | P 2.75 | H 2.11 | S 2.3 | G 2.44 | A 2.35 | Q 2.31 | L 2.39 | T 2.26 | F 2.57 | I 2.14 | C 2.65 | V 2.51 | D 2.6 | E 2.78 | K 3.32 | M 2.68
V17: N 2.87 | S 2.5 | G 2.63 | F 2.37 | K 3.69 | T 2.85 | E 2.37 | P 3.17 | W 2.28 | H 2.64 | I 2.25 | Q 2.47 | M 2.21 | D 3.07 | A 2.48 | R 2.55 | L 2.56 | C 2.65 | Y 2.2
K20: C 2.2 | F 2.15 | L 1.73 | P 2.69 | N 2.1 | Q 2.29 | A 1.95 | Y 2.46 | G 2.36 | V 2.3 | I 2.26 | S 2.08 | H 2.17 | M 2.25 | R 1.9 | T 2.03 | E 2.1 | W 1.61 | D 1.89
R21: Q 1.98 | P 2.46 | N 1.93 | V 2 | M 1.89 | A 2.06 | T 1.92 | Y 2.49 | E 2.39 | I 1.9 | S 1.65 | D 2.46 | W 2.18 | C 2.01 | G 1.96 | F 2.1 | L 2.02 | K 2.15 | H 2.56
